Where a chain is given by its changes, count along the chain named.
Columns and labels:
Assay in all cases: ELISA, antibody coated, OX40-ECD.His mutant supernatant; relative to silent alanine substitutions;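 note: captured OX40 mutant protein detected with HRP-labelled anti-His antibody, absorbance read-out, scaled to the mean signal of control mutants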
human OX40-ECD.His Y72A = target: T1, human OX40-ECD.His Y72A (human, UniProt P43489 29-214)
T1 construct: extracellular domain; not shown: C-terminal His-tag
T1 sequence (looked up): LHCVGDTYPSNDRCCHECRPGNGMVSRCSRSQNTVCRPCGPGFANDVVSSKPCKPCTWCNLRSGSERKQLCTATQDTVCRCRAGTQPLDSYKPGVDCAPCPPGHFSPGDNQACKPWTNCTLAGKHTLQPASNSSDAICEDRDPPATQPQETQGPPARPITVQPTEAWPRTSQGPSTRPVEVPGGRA

human OX40-ECD.His K82A = target: T2, human OX40-ECD.His K82A (human, UniProt P43489 29-214)
T2 construct: extracellular domain; not shown: C-terminal His-tag
T2 sequence (looked up): T1 sequence (looked up) with A44Y, K54A

human OX40-ECD.His R55A = target: T3, human OX40-ECD.His R55A (human, UniProt P43489 29-214)
T3 construct: extracellular domain; not shown: C-terminal His-tag
T3 sequence (looked up): T1 sequence (looked up) with R27A, A44Y

human OX40-ECD.His H153A = target: T4, human OX40-ECD.His H153A (human, UniProt P43489 29-214)
T4 construct: extracellular domain; not shown: C-terminal His-tag
T4 sequence (looked up): T1 sequence (looked up) with A44Y, H125A

human OX40-ECD.His A164G = target: T5, human OX40-ECD.His A164G (human, UniProt P43489 29-214)
T5 construct: extracellular domain; not shown: C-terminal His-tag
T5 sequence (looked up): T1 sequence (looked up) with A44Y, A136G

human OX40-ECD.His T102A = target: T6, human OX40-ECD.His T102A (human, UniProt P43489 29-214)
T6 construct: extracellular domain; not shown: C-terminal His-tag
T6 sequence (looked up): T1 sequence (looked up) with A44Y, T74A

human OX40-ECD.His R95A = target: T7, human OX40-ECD.His R95A (human, UniProt P43489 29-214)
T7 construct: extracellular domain; not shown: C-terminal His-tag
T7 sequence (looked up): T1 sequence (looked up) with A44Y, R67A

human OX40-ECD.His E94A = target: T8, human OX40-ECD.His E94A (human, UniProt P43489 29-214)
T8 construct: extracellular domain; not shown: C-terminal His-tag
T8 sequence (looked up): T1 sequence (looked up) with A44Y, E66A

human OX40-ECD.His L149A = target: T9, human OX40-ECD.His L149A (human, UniProt P43489 29-214)
T9 construct: extracellular domain; not shown: C-terminal His-tag
T9 sequence (looked up): T1 sequence (looked up) with A44Y, L121A

human OX40-ECD.His G68A = target: T10, human OX40-ECD.His G68A (human, UniProt P43489 29-214)
T10 construct: extracellular domain; not shown: C-terminal His-tag
T10 sequence (looked up): T1 sequence (looked up) with G40A, A44Y

B1: 1.134.9-u1-IgG1L (antibody, V domains shown)
VH: QVQLQESGPGLVKPSGTLSLTCAVSGGSISSYNWWSWVRQPPGKGLEWIGEIYHGGNTNYNPSLKSRVTMSVDNSKNQFSLKLSSVTAADTAVYYCARAPGDWGGSPYFDFWGQGTLVTVSS
VL: SSELTQDPAVSVALGQTVRITCQGDNLRTYYASWYQQKPGQAPILLIYGRNKRPSGIPDRFSGSSSGNTASLTITGAQAEDEAAYYCNSRDSSGNPVVFGGGTKLTVL
notes: fully human IgG1, lambda
Fold Change (human OX40-ECD.His Y72A): 0.384
Fold Change (human OX40-ECD.His K82A): 0.894
Fold Change (human OX40-ECD.His R55A): 0.976
Fold Change (human OX40-ECD.His H153A): 0.997
Fold Change (human OX40-ECD.His A164G): 0.47
Fold Change (human OX40-ECD.His T102A): 0.94
Fold Change (human OX40-ECD.His R95A): 0.996
Fold Change (human OX40-ECD.His E94A): 0.716
Fold Change (human OX40-ECD.His L149A): 1
Fold Change (human OX40-ECD.His G68A): 0.998

Reference: patent US20210171647A1 (WUXI BIOLOGICS SHANGHAI, published 2021)
